Target: recombinant His-tagged CD38 (Homo sapiens, UniProt P28907)
Assay: Pepscan-based ELISA of His-tagged CD38 on CD31 peptide arrays
Assay type: binding
Conditions: mimic type BET (β-turn mimic, mP2 CLIPS); sample with the highest signal
From the text: Different sets of sCD31 peptides were synthesized according to the following designs. Note that actual order of peptides on mini-cards in some was randomized. • Set #1 • Mimic type: linear • Label: LIN15 • Linear peptides of 15 consecutive amino acid residues in length, derived from the target sequence of sCD31 with an offset of […]. • Set #2 • Mimic type: single loop (mP2 CLIPS) • Label: LOOP7 • Constrained peptides of 9 amino acid residues in length. On positions 2-8 are incorporated 7 consecutive amino acid residues derived from the target sequence of sCD31 with an offset of 1.3 residues. Cys residues were inserted on positions 1 and 9 and joined by mP2 CLIPS in order to create a loop mimic. Native Cys residues, if present, were replaced by Ser residues. • Set #3 • Mimic type: single loop, (mP2 CLIPS) • Label: LOOP15 • Constrained peptides of 17 amino acid residues in length. On positions 2-16 are incorporated 15 consecutive amino acid residues derived from the target sequence of sCD31 with an offset of […]. Cys residues were inserted on positions 1 and 17 and joined by mP2 CLIPS in order to create a loop mimic. Native Cys residues, if present, were replaced by Ser residues. • Set #4 • Mimic type: β-turn peptide mimics (mP2 CLIPS) • Label: BET • β-turn peptide mimics of 22 amino acid residues in length. On positions 2-21 are incorporated 20 consecutive amino acid residues derived from the target sequence of sCD31 with an offset of 1.3 residues. Residues on positions 11 and 12 are replaced by a Pro-Gly motif in order to induce the β-turn formation. Cys residues were inserted on positions 1 and 22 and joined by mP2 CLIPS in order to stabilize the mimic. Native Cys residues, if present, were replaced by Ser residues.
To reconstruct epitopes of sCD31, a library of peptide-based peptide mimics was synthesized using Fmoc-based solid-phase peptide synthesis. An amino functionalized polypropylene support was obtained by grafting with a hydrophilic polymer formulation, followed by reaction with t-butyloxycarbonyl-hexamethylenediamine (BocHMDA) using dicyclohexylcarbodiimide (DCC) with N-hydroxybenzotriazole (HOBt) and subsequent cleavage of the Boc-groups using trifluoroacetic acid (TFA).
Standard Fmoc-peptide synthesis was used to synthesize peptides on the amino-functionalized solid support by custom modified JANUS liquid handling stations (Perkin Elmer).
Synthesis of structural mimics was done using CLIPS technology. CLIPS technology allows to structure peptides into single loops, double loops, triple loops, sheet-like folds, helix-like folds, and combinations thereof. CLIPS templates are coupled to cysteine residues. The side-chains of multiple cysteines in the peptides are coupled to one or two CLIPS templates. For example, a 0.5 mM solution of the P2 CLIPS (2,6-bis(bromomethyl)pyridine) is dissolved in ammonium bicarbonate (20 mM, pH 7.8)/acetonitrile (1:3, v/v). This solution is added onto the peptide arrays. The CLIPS template binds to side-chains of two cysteines as present in the solid-phase bound peptides of the peptide-arrays (455 wells plate with 3-µL wells). The peptide arrays are gently shaken in the solution for 30 to 60 minutes while completely covered in solution.
Finally, the peptide arrays are washed extensively with excess of H2O and sonicated in disrupt-buffer containing 1% SDS / 0.1 % 2,2′-(ethylenedioxy)diethanethiol in PBS (pH 7.2) at 70° C. for 30 minutes, followed by sonication in H2O for another 45 minutes.
The binding of the sample (recombinant His-tagged CD38; 9 µg/mL and 20 µg/mL) to each of the synthesized peptides was tested in a pepscan-based ELISA. The peptide arrays were incubated with primary sample solution (overnight at 4° C.). […]

In order of falling “Value (binding intensity of His-tagged CD38), BET conformational peptide array” value:
1. 275 (CKLKREKNSRPGNFVILEFPVC) [compound 275]  833 mAU
2. 276 (CLKREKNSRDPGFVILEFPVEC) [compound 276]  817 mAU
3. 268 (CVKPQHQMLFPGDDVLFYNISC) [compound 268]  792 mAU
4. 265 (CTTSHVKPQHPGLFYKDDVLFC) [compound 265]  679 mAU
5. 278 (CESSRISKVSPGVVNITELFSC) [compound 278]  637 mAU
6. 283 (CLSEVLRVKVPGPVDEVQISIC) [compound 283]  601 mAU
7. 279 (CPANFTIQKEPGIVSQTQDFTC) [compound 279]  461 mAU
8. 281 (CIVVSEMLSQPGISYDAQFEVC) [compound 281]  414 mAU

Same assay, conditions: mimic type LIN15; sample with the highest signal (His-tagged CD38 9 or 20 µg/mL)

In order of rising “Value (binding intensity of His-tagged CD38), LIN15 linear peptide array” value:
1. 104 (KVSSIVVNITELFSK) [compound 104]  155 mAU
2. 124 (VFKDNPTEDVEYQCV) [compound 124]  303 mAU
3. 123 (PAVFKDNPTEDVEYQ) [compound 123]  333 mAU
4. 170 (ASKEQEGEYYCTAFN) [compound 170]  400 mAU
5. 122 (DPAVFKDNPTEDVEY) [compound 122]  402 mAU
6. 121 (SNDPAVFKDNPTEDV) [compound 121]  410 mAU
7. 120 (NSNDPAVFKDNPTED) [compound 120]  421 mAU
8. 74 (KREKNSRDQNFVILE) [compound 74]  440 mAU
9. 171 (SKEQEGEYYCTAFNR) [compound 171]  454 mAU
10. 77 (KNSRDQNFVILEFPV) [compound 77]  502 mAU
11. 101 (RISKVSSIVVNITEL) [compound 101]  572 mAU
12. 83 (NFVILEFPVEEQDRV) [compound 83]  631 mAU
13. 80 (DQNFVILEFPVEEQD) [compound 80]  963 mAU
14. 78 (RDQNFVILEFPVEEQ) [compound 78]  1021 mAU

Same assay, conditions: mimic type LOOP7 (single loop, mP2 CLIPS); sample with the highest signal

In order of rising “Value (binding intensity of His-tagged CD38), LOOP7 conformational peptide array” value:
1. 173 (CNLTLQSFC) [compound 173]  370 mAU
2. 222 (CKEQEGEYC) [compound 222]  385 mAU
3. 204 (CSIVVNITC) [compound 204]  387 mAU
4. 221 (CDIVLQSAC) [compound 221]  389 mAU
5. 212 (CNPTEDVEC) [compound 212]  402 mAU
6. 199 (CLAQEFPEC) [compound 199]  412 mAU
7. 217 (CVQISILSC) [compound 217]  416 mAU
8. 220 (CGEDIVLQC) [compound 220]  442 mAU
9. 190 (CVRIYDSGC) [compound 190]  479 mAU
10. 183 (CVLFYNISC) [compound 183]  502 mAU
11. 197 (CVILEFPVC) [compound 197]  527 mAU
12. 216 (CEVQISILC) [compound 216]  529 mAU
13. 178 (CMLFYKDDC) [compound 178]  542 mAU
14. 225 (CGEYYSTAC) [compound 225]  552 mAU
15. 209 (CSYDAQFEC) [compound 209]  570 mAU
16. 219 (CSGEDIVLC) [compound 219]  573 mAU
17. 180 (CYKDDVLFC) [compound 180]  585 mAU
18. 202 (CFPEIIIQC) [compound 202]  596 mAU
19. 179 (CLFYKDDVC) [compound 179]  604 mAU
20. 195 (CDQNFVILC) [compound 195]  628 mAU
21. 194 (CEYQVLVEC) [compound 194]  651 mAU
22. 291 (CNFVILEFC) [compound 291]  1186 mAU

Same assay, conditions: mimic type LOOP15 (single loop, mP2 CLIPS); sample with the highest signal

In order of rising “Value (binding intensity of His-tagged CD38), LOOP15 conformational peptide array” value:
1. 260 (CSSRISKVSSIVVNITC) [compound 260]  287 mAU
2. 255 (CSTIQVTHLAQEFPEIC) [compound 255]  320 mAU
3. 259 (CVTHLAQEFPEIIIQKC) [compound 259]  343 mAU
4. 235 (CVLFYNISSMKSTESYC) [compound 235]  371 mAU
5. 245 (CESYFIPEVRIYDSGTC) [compound 245]  373 mAU
6. 227 (CHVKPQHQMLFYKDDVC) [compound 227]  431 mAU
7. 244 (CTESYFIPEVRIYDSGC) [compound 244]  465 mAU
8. 229 (CKPQHQMLFYKDDVLFC) [compound 229]  467 mAU
9. 238 (CNISSMKSTESYFIPEC) [compound 238]  478 mAU
10. 247 (CKREKNSRDQNFVILEC) [compound 247]  516 mAU
11. 254 (CFVILEFPVEEQDRVLC) [compound 254]  550 mAU
12. 249 (CEKNSRDQNFVILEFPC) [compound 249]  566 mAU
13. 230 (CQHQMLFYKDDVLFYNC) [compound 230]  600 mAU
14. 258 (CQVTHLAQEFPEIIIQC) [compound 258]  617 mAU
15. 233 (CMLFYKDDVLFYNISSC) [compound 233]  630 mAU
16. 232 (CQMLFYKDDVLFYNISC) [compound 232]  646 mAU
17. 252 (CQNFVILEFPVEEQDRC) [compound 252]  729 mAU
18. 262 (CISKVSSIVVNITELFC) [compound 262]  795 mAU
19. 164 (CNSRDQNFVILEFPVEC) [compound 164]  965 mAU
20. 248 (CREKNSRDQNFVILEFC) [compound 248]  1073 mAU
